# Assay results as given in the supplement of paper PMC10567573.
# ± gives the standard deviation.
# Assay: protein stability index of a GFP-peptide fusion (GPS, HEK-293T) (PSI 1-6); higher = more stable
# [1] = treatment: DMSO, c terminus: a fixed tail appended
# [2] = treatment: MLN4924 1 uM, 8 h, c terminus: a fixed tail appended
# [3] = treatment: DMSO, c terminus: native
# [4] = treatment: MLN4924 1 uM, 8 h, c terminus: native
# 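Note: 24-mer peptide tiles fused after GFP, lentivirally expressed, FACS-sorted into six equal bins by GFP/DsRed ratio, decoded by Illumina sequencing, PSI is the read-weighted mean bin number.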
Sequence,protein stability index [1],protein stability index [2],protein stability index [3],protein stability index [4]
KKIVHYTCFDQRKRANAAFLIGAY [CDC14A],2.37 ± 0.31,2.07 ± 0.83,–,–
SETPKSQVGTLLFRSRSRLTHLSL [CDC25B],2.43 ± 0.12,2.53 ± 0.3,–,–
RELGIRQRDEQLRALQERLGQQQR [FBF1],4.39 ± 0.14,4.42 ± 0.14,–,–
AALGSRGSCSTEVEKETQEKMTIL [ATP6V1G1],2.52 ± 0.47,2.52 ± 0.55,–,–
IDQWSMLGDMQTAREGAGLVVASG [KLHL12],3.36 ± 0.15,3.52 ± 0.051,–,–
SKGMQDFNYLHTNCFEITLELSCD [CPN1],2.97 ± 0.48,2.72 ± 0.58,–,–
CKKGDPKHGKRKRGRPRKLSKEYW [ELF3],3.56 ± 0.13,3.85 ± 0.22,–,–
PVDLWACGVILYILLVGYPPFWDE [CAMK2A],3.08 ± 0.1,2.56 ± 0.096,–,–
ERMPPSGAARSFQEVTEPAVVAVD [PXN],4.95 ± 0.17,5.29 ± 0.31,–,–
QGGELVVAYPYDLVRSPWKTQEHT [CPXM2],2.58 ± 0.21,2.15 ± 0.25,–,–
TSPSPERSLLLKYARTPTLDPDTM [TRIM14],3.89 ± 0.66,4.29 ± 0.32,–,–
LDTGTNYDYVREFKRSTGTWHHTK [GAN],3.34 ± 0.11,3.42 ± 0.25,–,–
LDSSLASLVGNLGISGTTTKKGDL [SNAP91],4.76 ± 0.24,4.73 ± 0.19,–,–
ENYLNRCMDQERLRRESTSQKEMD [FCHO1],4.24 ± 0.28,4.56 ± 0.3,–,–
ELEKIGSGEFGSVFKCVKRLDGCI [WEE1],2.29 ± 0.25,2.35 ± 0.24,–,–
VSAEGSHPDPAPFCADNPSELPPP [DVL3],5.25 ± 0.27,5.32 ± 0.18,–,–
IQECVPEDLELKKKIFAQLDSIID [CRYL1],3.07 ± 0.2,3.33 ± 0.34,–,–
PWDESGSGCLPPEPLFEAGDATLA [FOXJ1],5.07 ± 0.39,5.08 ± 0.23,–,–
ARGLDDAAARGGQCPGLGPAPTPT [ZBED3],4.65 ± 0.14,4.7 ± 0.25,–,–
VAALVVNFSQPVAGRPSLLRHDEV [NLN],2.46 ± 0.49,2.48 ± 0.36,–,–
TLGGLNPSPSEVITPWTPSPSEKN [SMTNL2],5.21 ± 0.25,5.08 ± 0.14,–,–
EAWRLVEEGIVSPSDLDLVMSEGL [CRYL1],3.91 ± 0.058,3.9 ± 0.16,–,–
ERLERAVSDRLAPGAPRGNPPKAS [MYCL],4.84 ± 0.44,5.23 ± 0.26,–,–

Sequence,protein stability index [1],protein stability index [2],protein stability index [3],protein stability index [4]
IYHLDGQETPYLVKLPLPAERVTL [DVL3],2.28 ± 0.24,2.34 ± 0.26,–,–
RKIQFNFPYFRSDRDKRDFVSAGA [CLCN6],2.67 ± 0.16,2.76 ± 0.39,–,–
SEVESAVWYVKKFGRYLEHLEVKF [FBXO39],2.44 ± 0.22,2.47 ± 0.43,–,–
KFSNIVDKFVIVDCRYPYEYEGGH [CDC25B],2.47 ± 0.16,2.25 ± 0.62,–,–
QQAGLLVTGEKEEPSRSASEADSE [PPEF2],5.613 ± 0.041,5.56 ± 0.16,–,–
WLQNTHVYSWPKNKKNILLRLLRE [TRAF3IP2],2.08 ± 0.58,2.38 ± 0.42,–,–
HTLILMFIWFVCSLVYYGLTLSAG [SLC22A15],2.42 ± 0.79,2.16 ± 0.36,–,–
PGPKGDPGEKSHWGEGLHQLREAL [EMID1],3.32 ± 0.13,3.46 ± 0.52,–,–
PQAFPMSRLWDSRLRHYLGSRYDA [DNAAF3],2.2 ± 0.47,2.51 ± 0.35,–,–
YPNYEFISDNSISWSAGLHNRYTE [FUT8],2.51 ± 0.1,2.72 ± 0.36,–,–
GSDAEQSTSGQPYPTSDQEGDPGS [LCOR],5.53 ± 0.35,5.59 ± 0.28,–,–
DLSMKGGASTTSTTPSALSGEPPT [NOL4L],5.16 ± 0.32,5.28 ± 0.28,–,–
TTHFQSIPDAFWWAVVTMTTVGYG [KCNA4],3.05 ± 0.88,2.96 ± 0.33,–,–
AEDFSTMDEISEKLKKGICEALED [MATN2],5.22 ± 0.32,5 ± 0.33,–,–
PLLPSDLRRTGCAALRIANCKLFR [GAN],2.29 ± 0.34,2.35 ± 0.24,–,–
DSVPFHLGWNSTERSLRLQARYHD [MYORG],3.59 ± 0.24,3.51 ± 0.17,–,–
ILSEEGRRQQAKLKELQAIAERLG [KCNAB2],3.57 ± 0.38,3.73 ± 0.3,–,–
SQTPILQALQHVQASCDEAHKMKF [INTS3],3.88 ± 0.14,3.93 ± 0.21,–,–
MIIEHKIVIADVKLVADFQRYILY [ZNF277],3.58 ± 0.73,2.74 ± 1.1,–,–
RSVDVVVSSVFLLTLSIAFICCAQ [PHTF1],3.33 ± 0.59,3.35 ± 0.6,–,–
QGPQGREGLAFLVSCPEGRADCAS [PWWP2B],3.77 ± 0.33,3.95 ± 0.26,–,–
IVKKPKSMQCKVILLDGSEYTCDV [EPB41L3],1.93 ± 0.24,2.23 ± 0.69,–,–
LSLTGVSLAGALGVKFVGLFIILQ [POMT2],3.05 ± 1.1,2.39 ± 1.1,–,–

Sequence,protein stability index [1],protein stability index [2],protein stability index [3],protein stability index [4]
EKRLEGQEEEEDNRDSSMKLSFRA [CHGA],5.1 ± 0.75,5.19 ± 0.38,–,–
PATHLSPALAPVPRNSCITCPQCH [TRIM9],3.82 ± 0.39,3.87 ± 0.23,–,–
ATSATSHTRSLNSIIHQMEKFSSS [FBF1],3.34 ± 0.28,3.59 ± 0.39,–,–
RQGIQLNKTPGAPESSALQPPPQS [WAS],4.74 ± 0.6,4.8 ± 0.094,–,–
GTKQGHLLLYRIRKDVGCNRFEVT [VPS39],2.12 ± 0.37,2.41 ± 0.28,–,–
GLETLFSKAQELGGAGREDPGLWS [ZSWIM9],3.18 ± 0.5,3.39 ± 0.23,–,–
YSQASELPTDAVDCMSRELVSLTS [FBXO34],4.03 ± 0.14,4.11 ± 0.11,–,–
IIYMGSFMLMLLVLGIQVKCFHEI [CDS1],3.57 ± 0.85,3.27 ± 0.34,–,–
EDDKLVVECVMKGVTSTRVYERA [FABP4],–,–,3.03 ± 0.29,3.75 ± 0.42
CPWHYLHLSGSHNTLAPTCFKAKL [RSPH3],2.35 ± 0.23,2.59 ± 0.13,–,–
LEVKIHDWYQKQTPTSPECDYSQY [KRT15],2.81 ± 0.3,2.94 ± 0.25,–,–
SIQKLSNESRYMIYEFWENSSVWN [NECAB1],2.15 ± 0.45,2.01 ± 0.3,–,–
VLGGNLQGGELVVAYPYDLVRSPW [CPXM2],2.13 ± 0.12,2.48 ± 0.48,–,–
MIAFFFIIIYLGPMVLMIIVMCVQ [CDS2],3.3 ± 0.31,3.12 ± 0.93,–,–
DPSIFTAQPNTMLGRMFGSGREHN [BTBD10],3.95 ± 0.27,3.79 ± 0.28,–,–
GLGRPTPGLSQGPGKETLESALIA [EHMT1],3.95 ± 0.13,4.29 ± 0.22,–,–
FRNLVADRVLNYTSWSQHCPWEPQ [SPAG8],2.21 ± 0.21,2.36 ± 0.23,–,–
SQDLLPPPNPYPLPQEHSQIYHCT [TBX5],4.02 ± 0.22,4.11 ± 0.22,–,–
TGTYQRAILQNHTDFKDKIVLDVG [CARM1],3.34 ± 0.092,3.35 ± 0.27,–,–
ERKGWLAPSPGVKEQAIWKHPQPA [PKD2L1],3.52 ± 0.21,3.73 ± 0.41,–,–
RQSGDRRQLPPPPTPANEERRGGL [WAS],5.42 ± 0.16,5.23 ± 0.068,–,–
EDSLATVKVVLIPVGQEIVIPFKV [IQUB],2.86 ± 1.3,2.43 ± 0.98,–,–
RLLSYRGERVAARGYWGDIATGPF [DNAAF3],2.18 ± 0.046,2.18 ± 0.34,–,–

Sequence,protein stability index [1],protein stability index [2],protein stability index [3],protein stability index [4]
KSMKPYNYCSAYESFYESTSPECA [NEUROD6],3.15 ± 0.17,3.23 ± 0.35,–,–
CFLLTAMAYDQFLAICRPLTYSTR [OR3A1],2.89 ± 0.35,2.89 ± 0.69,–,–
PSAELVQTRMAVSLTAAETLALQG [ZNF232],3.45 ± 0.35,3.23 ± 0.23,–,–
EEERAFWMENNGHVAGEQMLEDGP [CCDC70],5.37 ± 0.35,5.2 ± 0.45,–,–
SLSKKYRQDAKYLNMRSTYAKLAA [SEC22B],2.56 ± 0.24,2.62 ± 0.073,–,–
PDMSVTKVVVHKETEITPEDGED [EPB41L3],–,–,5.5 ± 0.35,5.57 ± 0.29
NAESSKTWLKGKFTELRLLLDEEE [TRIM14],4.14 ± 0.34,4.41 ± 0.47,–,–
LACLHVACVVQQKDARQWFAELSV [CCNC],3.22 ± 0.61,3.28 ± 0.45,–,–
EAQLSLIRDIRRRGKNKMAAQNCR [NFE2L1],3.61 ± 0.35,3.58 ± 0.22,–,–
HGDARATGREMHGKNWSKLCKDCQ [TPPP],4.18 ± 0.13,4.53 ± 0.23,–,–
AVLTTHHHWDHARGNPELARLRPG [HAGHL],3.28 ± 0.17,3.4 ± 0.34,–,–
LELDDNLDTERPVQKRARSGPQPR [TRIB3],4.9 ± 0.38,5.11 ± 0.18,–,–
SYDVALHRTRLQDLRVLVSNASED [SCARA5],3.77 ± 0.18,3.93 ± 0.27,–,–
EKKDLKLEPPEEEIIEGNTKSHIM [NECAB1],5.46 ± 0.17,5.43 ± 0.14,–,–
FFEKPDYDYLRKLFTDLFDRKGYM [CSNK1G3],2.05 ± 0.58,2.5 ± 0.25,–,–
SGLRGGILIELAMRGRIYLEPPTM [GOLPH3L],3.09 ± 0.41,2.74 ± 0.76,–,–
REFSFTLKDDIYIRYQSFNNQSDL [PRIM1],2.26 ± 0.084,2.22 ± 0.41,–,–
DNSTMGYMMAKKHLEINPDHPIVE [HSP90AB1],4.21 ± 0.21,4.05 ± 0.28,–,–
TFDAITTIRGEVMFFKDRFYMRTN [MMP1],2.25 ± 0.41,2.07 ± 0.19,–,–
STRVCLQPIRGVEGSDYINASFID [PTPRD],3.18 ± 0.29,3.25 ± 0.41,–,–
